Assay [1] has as its target rhTNFα labeled in the amine groups (NT-650, NHS-coupling) (human) (UniProt P01375). Kind of assay: MST.
Assay [2] has as its target recombinant human TNFα (soluble human TNFα, residues 85-233, C-terminal His tag) (human) (UniProt P01375). Kind of assay: ELISA. In general terms: In an ELISA, binding on a coated surface is turned into a signal by an enzyme label.
Assay [3] deals with Adalimumab labeled with NT-647 in the thiol groups (Cys-coupling) (human). Description: MST.

Take Adalimumab (Humira) (antibody): in assay [1], the KD of the first phase (Adalimumab 30.5 pM to 7.8 nM) came to 100 pM and the KD of the second phase (Adalimumab 1.95 to 1 µM) stood at 21 nM. Further, in assay [2], the Kd – broadly, the equilibrium constant for the complex coming apart – worked out at 1.32 nM; the OD50 (antagonist concentration at half-maximal OD), rhTNFα coated at 1,25 µg/ml came to 0.641 nM; the OD50 (antagonist concentration at half-maximal OD), rhTNFα coated at 2,5 µg/ml came out at 0.622 nM.
On to “recombinant human TNFα (soluble human TNFα, residues 85-233, C-terminal His tag) (from UniProt P01375 85-233) (ligand)”, for which the equilibrium dissociation constant (Kd) in assay [3] was 29.6 nM.
